Data set [1] concerns the target T1, FANCA;FAAP20 (human;human, UniProt O15360;Q6NZ36 1-1455;1-180, |). Briefly: EMSA; fixed suboptimal FANCA, FAAP20 titrated; binding stimulated; EMSA: 125 mM Tris pH 7.5, 5 mM EDTA, 6% glycerol, 1 mM DTT, 100 mM NaCl, 1 nM substrate, RT 45 min; 4% native PAGE in 1x TAE. The settings on record: protein: recombinant;recombinant; tags: none (native FANCA);C-terminal 6xHis; copies: 1;1; label: 32P 5' (T4 PNK); single strand. Background: In EMSA bound probe runs differently from free probe, usually more slowly.

Data set [2] concerns the target T1, FANCA;FAAP20. The data set is described as follows: EMSA; FANCA 10 nM, FAAP20 9-24 nM; binding stimulated; EMSA: 125 mM Tris pH 7.5, 5 mM EDTA, 6% glycerol, 1 mM DTT, 100 mM NaCl, 1 nM substrate, RT 45 min; 4% native PAGE in 1x TAE. The following applies: protein: recombinant;recombinant; tags: none (native FANCA);C-terminal 6xHis; copies: 1;1; label: 32P 5' (T4 PNK); fork, 25 bp duplex; unpaired 3' arm 30 nt (strand 1) and 5' arm 25 nt (strand 2); 1 nt 3' overhang on strand 2 as printed.

In data set [3] the target is T1, FANCA;FAAP20. The data set is described as follows: EMSA; FANCA 10 nM, FAAP20 9-24 nM; FAAP20 increases FANCA affinity; EMSA: 125 mM Tris pH 7.5, 5 mM EDTA, 6% glycerol, 1 mM DTT, 100 mM NaCl, 1 nM substrate, RT 45 min; 4% native PAGE in 1x TAE. The settings on record: protein: recombinant;recombinant; tags: none (native FANCA);C-terminal 6xHis; copies: 1;1; label: 32P 5' (T4 PNK); single strand.

In data set [4] the target is T2, FAAP20 (human, UniProt Q6NZ36 1-180).
T2 sequence: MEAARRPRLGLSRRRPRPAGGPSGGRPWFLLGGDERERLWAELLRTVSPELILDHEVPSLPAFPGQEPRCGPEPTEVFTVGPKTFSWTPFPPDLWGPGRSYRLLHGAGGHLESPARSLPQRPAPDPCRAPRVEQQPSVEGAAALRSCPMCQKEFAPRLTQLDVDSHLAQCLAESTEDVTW
Briefly: EMSA; FAAP20 9-24 nM; EMSA: 125 mM Tris pH 7.5, 5 mM EDTA, 6% glycerol, 1 mM DTT, 100 mM NaCl, 1 nM substrate, RT 45 min; 4% native PAGE in 1x TAE. The settings on record: protein: recombinant; tags: C-terminal 6xHis; label: 32P 5' (T4 PNK); single strand.

Data set [5] has as its target FANCA;FAAP20;FANCG (human;human;human, UniProt O15360;Q6NZ36;O15287 1-1455;1-180;1-622, ||). The data set is described as follows: EMSA; 10 nM each; slightly additive over FANCA+FANCG or FANCA+FAAP20; EMSA: 125 mM Tris pH 7.5, 5 mM EDTA, 6% glycerol, 1 mM DTT, 100 mM NaCl, 1 nM substrate, RT 45 min; 4% native PAGE in 1x TAE. The settings on record: protein: recombinant;recombinant;recombinant; tags: none (native FANCA);C-terminal 6xHis;N-terminal 6xHis; label: 32P 5' (T4 PNK); single strand.

Data set [6] deals with FANCA;FANCG (human;human, UniProt O15360;O15287 1-1455;1-622, |). The data set is described as follows: EMSA; 10 nM each; higher affinity than FANCA alone; EMSA: 125 mM Tris pH 7.5, 5 mM EDTA, 6% glycerol, 1 mM DTT, 100 mM NaCl, 1 nM substrate, RT 45 min; 4% native PAGE in 1x TAE. The following applies: protein: recombinant;recombinant; tags: none (native FANCA);N-terminal 6xHis; copies: 1;1; label: 32P 5' (T4 PNK); single strand.
Chain of FANCA;FANCG (O15360 whole entry, chain 1 of 2): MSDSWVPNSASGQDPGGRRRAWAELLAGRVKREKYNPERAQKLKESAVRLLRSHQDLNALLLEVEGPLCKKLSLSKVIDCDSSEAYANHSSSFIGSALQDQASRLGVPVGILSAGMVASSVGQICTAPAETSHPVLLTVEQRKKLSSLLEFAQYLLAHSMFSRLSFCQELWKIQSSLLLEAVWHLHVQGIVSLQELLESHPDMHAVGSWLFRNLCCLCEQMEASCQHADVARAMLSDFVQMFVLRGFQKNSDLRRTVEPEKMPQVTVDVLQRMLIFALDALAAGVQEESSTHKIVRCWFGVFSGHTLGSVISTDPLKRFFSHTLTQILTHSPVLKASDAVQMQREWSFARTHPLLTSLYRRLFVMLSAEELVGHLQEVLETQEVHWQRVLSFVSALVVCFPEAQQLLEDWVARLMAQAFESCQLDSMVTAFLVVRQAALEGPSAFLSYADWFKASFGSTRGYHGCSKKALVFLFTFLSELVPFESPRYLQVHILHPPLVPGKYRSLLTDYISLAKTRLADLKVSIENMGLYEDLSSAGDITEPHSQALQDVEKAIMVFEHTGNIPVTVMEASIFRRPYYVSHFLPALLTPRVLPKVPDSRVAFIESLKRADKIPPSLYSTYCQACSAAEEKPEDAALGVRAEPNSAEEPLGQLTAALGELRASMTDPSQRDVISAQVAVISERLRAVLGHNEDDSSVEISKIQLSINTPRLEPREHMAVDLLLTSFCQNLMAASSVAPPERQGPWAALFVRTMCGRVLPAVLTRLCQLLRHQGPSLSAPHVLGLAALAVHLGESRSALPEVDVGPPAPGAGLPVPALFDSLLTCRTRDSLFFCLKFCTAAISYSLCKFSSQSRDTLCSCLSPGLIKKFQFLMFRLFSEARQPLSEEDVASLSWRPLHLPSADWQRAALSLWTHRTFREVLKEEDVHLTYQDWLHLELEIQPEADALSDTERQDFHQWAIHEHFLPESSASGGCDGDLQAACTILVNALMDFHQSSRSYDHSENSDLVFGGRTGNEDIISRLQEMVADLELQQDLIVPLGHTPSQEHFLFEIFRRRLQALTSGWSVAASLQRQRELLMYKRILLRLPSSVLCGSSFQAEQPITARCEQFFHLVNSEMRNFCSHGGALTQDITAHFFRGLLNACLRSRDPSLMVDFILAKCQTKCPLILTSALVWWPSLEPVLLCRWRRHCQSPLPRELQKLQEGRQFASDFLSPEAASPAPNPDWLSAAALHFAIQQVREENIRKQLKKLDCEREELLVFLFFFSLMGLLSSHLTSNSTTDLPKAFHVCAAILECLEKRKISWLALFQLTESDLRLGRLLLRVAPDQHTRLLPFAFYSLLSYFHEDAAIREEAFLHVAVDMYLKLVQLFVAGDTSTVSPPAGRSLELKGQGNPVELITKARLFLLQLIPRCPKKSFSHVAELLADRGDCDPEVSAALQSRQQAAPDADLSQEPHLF
Chain of FANCA;FANCG (O15287 whole entry, chain 2 of 2): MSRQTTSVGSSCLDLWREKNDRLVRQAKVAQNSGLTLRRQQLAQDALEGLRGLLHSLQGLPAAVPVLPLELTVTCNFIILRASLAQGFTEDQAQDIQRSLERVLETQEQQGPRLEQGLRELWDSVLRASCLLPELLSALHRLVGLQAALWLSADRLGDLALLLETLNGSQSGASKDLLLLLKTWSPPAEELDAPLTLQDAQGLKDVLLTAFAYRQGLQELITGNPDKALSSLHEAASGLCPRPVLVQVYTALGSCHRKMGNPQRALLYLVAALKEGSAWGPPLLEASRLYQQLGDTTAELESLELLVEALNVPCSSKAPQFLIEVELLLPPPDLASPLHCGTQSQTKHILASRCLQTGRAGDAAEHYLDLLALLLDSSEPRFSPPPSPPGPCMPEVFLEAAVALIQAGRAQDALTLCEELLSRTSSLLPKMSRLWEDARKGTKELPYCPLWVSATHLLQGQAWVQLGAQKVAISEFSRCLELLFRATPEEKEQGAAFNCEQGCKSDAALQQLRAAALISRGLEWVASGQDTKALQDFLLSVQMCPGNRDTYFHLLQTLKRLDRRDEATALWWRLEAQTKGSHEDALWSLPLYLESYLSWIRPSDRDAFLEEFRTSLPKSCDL

T1 sequence (O15360 whole entry, one chain of several): as the sequence (O15360 whole entry, chain 1 of 2) above
Chain of FANCA;FAAP20;FANCG (O15360 whole entry, chain 1 of 2): as above
Chain of FANCA;FAAP20;FANCG (O15287 whole entry, chain 3 of 2): as the sequence (O15287 whole entry, chain 2 of 2) above

B1: EMSA ssRNA 61-mer (ssRNA)
RNA: GACGCUGCCGAAUUCUACCAGUGCCUUGCUAGGACAUCUUUGCCCACCUGCAGGUUCACCC
With B1, the binding result in data set [1] is given as “binds”.

B2: splayed arm DNA (mixed)
DNA 1: GTCCTCCACCGCAGCCCACCTGCCCACCTTGTTGCTGATCTCAATCAGCTCTGGA
DNA 2: GCTGGCACGGTCGGATTTAAAGTTAGGGCAGGTGGGCTGCGGTGGAGGACG
B2: the binding result in data set [2] is reported as “binds”.

B3: EMSA ssDNA 61-mer (ssDNA)
DNA: GACGCTGCCGAATTCTACCAGTGCCTTGCTAGGACATCTTTGCCCACCTGCAGGTTCACCC
As to B3, the binding result in data set [3] is on record as “binds”; in data set [4], “no binding”; in data set [5], “binds”; in data set [6], “binds”.

These data come from paper PMC10449828, “Fanconi anemia associated protein 20 (FAAP20) plays an essential role in homology-directed repair of DNA double-strand breaks”.
